# Results: the nanobody polyreactivity screen of Harvey et al. (2022)
# Assay: yeast display, Sf9 membrane polyspecificity reagent, FACS + sequencing; frameworks hold sequencing errors
# Summary of the method: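 After 36–48 hours of galactose induction, yeast (Saccharomyces cerevisiae BJ5465) displaying a synthetic nanobody library were stained at 4 °C for 1 hour with 10% biotinylated, detergent-solubilized Sf9 membrane reagent. Streptavidin microbeads enriched the stained cells before FACS sorting into low and high (top ~1%) gates on anti-HA and streptavidin fluorescence. Each clone's polyreactivity label reflects its gate of origin.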
row,Sequence,polyreactivity (PSR sort gate)
1,QEQLQESGSGLVQAGGSLRLSCAASGNIFRDWVMGWYRQAPGKERELVAAISPGAITYYADSVKGRFTISRDNAKNTVYLQTNSLKPEDTEVYYCAAYYIVEYLHGYWGQGTRVTVSS,low polyreactivity
2,QEQLQESGSGLVQAGVSLRLSSAASGNIVQDWVMGWYRQAPGKERELVAAISPGAITYYADSVKGRFTISSDNAKNTVYLQTNRLNPEDTAVYYCAAYYIVEFLHGYWGQGTRVTVSS,low polyreactivity
3,QEQLQGSGGGLVQAGGSLRLTCAASGYIFQNVPMGWNRQAPGKERQLLAGIDNGTSTNYADSVNGRFTISRDNAKNTVYLQMNSLKPEDTAVYYCAAAGQADDTLGYWGQGTQVTVSS,low polyreactivity
4,QEQLVESGGGLVQAGGSLRLSCAATGLTITDYAMGWYRQAPGKERELDAGINTRGTSRYSADSVKGRFTISRDNAKNTVYFQMFSLNPEDTAVYYCDSEYFGYWYGIQYDYWGQGTQVTVSS,high polyreactivity
5,QEQLVESGGGLVQAGGTLRLSSAASVNTISPNAMGWYRQPPGKERELVAAIDSRDGIRYYADSVKGRFTISRDNAKNTVYLQMNSLKPEDTAVYYCAPDEWYGESNYWGQGTQVTVSS,low polyreactivity
6,QFHLVESGGGLVQAGGSLRLSCAASGSNILYYVMGWYRQAPRKERELVAAITWDGGSTYYADSVKGRFTISRDNAKNTVYLELNSLIPEDTAVYYCNKVTTYSYYTEPYEYWGQGTQVTVSS,low polyreactivity
7,QFHLVESVGGLFQAGGSLRLSSAASGRNFSIYAMGWYRQAPGKERELVAAISWSGGRTYYADSVKGRFTISRDTAKNTVYLQMNSLKPEDTAVYYCNAENGWADYYRSDYWGQGTQVTVSS,high polyreactivity
8,QFQIVESGGGLVQAGGSLRISCAASVFIFARYAIGWYRQAHGKEREFVAAISSSGGSTYYADSVKGRFTISRDNAKNTVYLQMNSLKPADTAVYYCNVRLRIRSGYWGQGSQVTVSS,high polyreactivity
9,QFQIVESGGGLVQAGGSLRLSCASSGLIFYKYAMGWYRQAPGKERELVARISYTGGITSYADSVKGRFTISRDNAKNTVYLQMNSLKPEDTAVYYCAARYTRPFGPFDYWGQGTQVTVSS,low polyreactivity
10,QFQLEESGGGLVQAGGSLRLSCAASGSTFWYNAMGWYRQAPGKERELVAAISRSGATTYYADSVKGRFTISRDNAKNTVYLQMNSLKPEDTAVYYCNAVISPSSYVRNSDYWGQGTQVTVSS,low polyreactivity
11,QFQLEESGRGLVQAGGSLRLSCAASGRIFRYYAMGWYRQAPGKERELVAGISWRGSSTYYADSVKGRFTISRDNAKNTVYLQMNSLKPEDTAVYYCAARKASGRFGYWGQGTQVTVSS,high polyreactivity
12,QFQLEESRRGLDQAGGSLRLSCAASGSIFTLYDMGWYRQAPGKERELVAAITSGGSTDYADSVKGRFTISRDKAKNTVFLQMNSLKPEDTAVYYCAADTFYIYEDVLYVQGDYYWGQGTQVTVSS,low polyreactivity
13,QFQLGESVGGLVQAGGSLRLSCAGYGSIFLGKAMGWYREATGKEMEFVDAIRISGGSTYYADSVKGRFTISRDNAQYTVYIQMNILKPEDTAVYYCAKFGPRASLYRTGRYYWGQGTQVTVSS,high polyreactivity
14,QFQLLESGRGLVQAGGSLRLSCAASGRTYNVNAMGWYRKAPGKERELVASISSGTSTNYADSVKGRFTITRDNAKNTVYLQLNRLNREDTAVYYCNADFVWNGYSGRIRDYYWGQATQVTVSS,low polyreactivity
15,QFQLVDSGGGLVQAGGSLSLICAASGLIFYTYAMGWYRQAPGKERELVAAISRTRVSTYYADSVKGRFTISRDNAKNTVYLQMNSLKPEYTAVYYCATSRYLKLGYDYWGQGTQVTVSS,high polyreactivity
16,QFQLVDSGGSLVQAGSSLPLSCPASGRTFPYNVMGWYRQAPGKERELFASIDGSGGSTYYADSVKGRFTISRDYAKNTVYLQMNSLNPVDTAVYYCAAVYYQSGNYWYGYLGQSPYDYWGLGTQVTVSS,low polyreactivity
17,QFQLVEAGGGLVQAGGSLRLSCAASGSIFTYAMGWYRQAPGKEREFVAAISRSGGRTYYADSVKGRFTMSRDNAKNTVYFQMNSLKPDDTAVYYCAPLLLKDYDYWGQGTQVTVSS,low polyreactivity
18,QFQLVESGGGLDQAGGSLRLSCAASGITVYYYALGCYRQAPGKERELVAAITSSGGSTYYADSVKGRFTISRDNAKNTVYLQMNSLKPEDTAVYYCAARSYRGSSTYQGHGYWGQGTQVTVSS,high polyreactivity
19,QFQLVESGGGLDQAGGSLRLSCAASGSIFSYYDMGGDRQAPGKDRELVAGNSRGGSTNYADSVKGRFTISRDNAKKTVYLQMNSLKPEDTAVYYCNADQSSRTYPFRLSRRSWLYGYWGQGTQVTVSS,low polyreactivity
20,QFQLVESGGGLDQARGSLRLTCAASGSIFARNAMGWYRQAPGKERELVAAITYSGGNTYYADSVKGRFTISRDNAKNTVYLQMNSLKPEDTAVYYCNKDWYPTYAAYNYYYWGQGTQVTVSS,high polyreactivity
21,QFQLVESGGGLFQAGARLRLSSAASGNIFNWYALGLYRQAPGKEREFVACISTSGGSTYYADSVKGRFTISRDNAKNSVYLQMNSLKPEDTAVYYCNAKFFVYECLPGPSYWYDYWGQGTQVTVSS,high polyreactivity
22,QFQLVESGGGLFQAGGILRLSCAASGRNFLYNAMGWDRQAPGKERELVAAISSRGARTYYADSVKGRFTISRDNAKNTVYFQMNSLKPEDTAVYYCATDSYRYDGIQYLYEYYYWGQGTQVTVSS,high polyreactivity
23,QFQLVESGGGLLQAGGSLRLSCAASGSTFYRYVMGWYRQATGKERELVAAITWRGGTTYYADSVKGRFTISRDNAKNTVYLKMISLKPDDTAVYYCNADRGGLRWFWQVLYDYWGQGTQVTVSS,low polyreactivity
24,QFQLVESGGGLVQAGGSHRLICAASGRTFPYYAKGWYRQAPGKERELVATINTGTSTNYADSVKGRFTISRDNANNTVYLQMHSLKPEDTAVYYCAAATTYGKSEYDYWGQGTQVTVSS,high polyreactivity
25,QFQLVESGGGLVQAGGSLGLSCAASGRSFAQYTMGWYRQAPGKERELVAAISWSGTSTYYADSVKGRFTISRDNAKNTVSLQMNSLKPEDTAVYYCAALGRYSVEYGYWGQGTQVTVSS,high polyreactivity
26,QFQLVESGGGLVQAGGSLRISCAASGSIFRRYAMGWYRQAPWKERELVATISSGTTTNYADSVKGRFTISRDNANNSVYLQLNSLKPEDTSVFYCAAVVYGHIRGPGERKSYWGQGTQVTVSS,high polyreactivity
27,QFQLVESGGGLVQAGGSLRISCDASGRTFWYYTMGWYRKAPGKERELVASITYRGGSTYYADSVKGRFTISRDNAKNTVYLQMNSLKPEDTAVYYCNKPYFTASGDRFGYWGQGTQVTVSS,low polyreactivity
28,QFQLVESGGGLVQAGGSLRLSCAASAGNFNRYAMGWYRQAPGKEMELVAAISSSGGPTYYADSVKGRFTISRDNAKNTVYLQMNSLKPEDSAVYYCNARYPRLHRTYNYWGQGTQVTVSS,high polyreactivity
29,QFQLVESGGGLVQAGGSLRLSCAASARTFVSNAMGWDRQAPGKERELVADITSGGSTDYADSVKGRFTSSRDNAKNTVYVQMNSVKPEDTAVSYCATDLWRWYGWFDYWGQGTQVTVSS,low polyreactivity
30,QFQLVESGGGLVQAGGSLRLSCAASASTYYYYVMGWSIQAPVKEREVVAAITRSTGSTYYADSVKGRFTISRDNAKNTVYLNKNSLKPEETSVYYCAAEGPKWYYSGAFDYWGQGSQVTVSS,low polyreactivity
